T1: KRAS G12V peptide on HLA-A*11:01 (human)
T1 peptide: VVGAVGVGK

T2: KRAS G12V peptide on HLA-A*11:01 (human)
T2 peptide: VVVGAVGVGK

B1: TCR1 (TCR)
TCR alpha: SLAKTTQPISMDSYEGQEVNITCSHNNIATNDYITWYQQFPSQGPRFIIQGYKTKVTNEVASLFIPADRKSSTLSLPRVSLSDTAVYYCLVGALSSSWYGQNFVFGPGTRLSVLPYIQNPDPAVYQLRDSKSSDKSVCLFTDFDSQTNVSQSKDSDVYITDKTVLDMRSMDFKSNSAVAWSNKSDFACANAFNNSIIPEDTFFPSPESSCDVKLVEKSFETDTNLNFQNLSVIGFRILLLKVAGFNLLMTLRLWSS
TCR beta: DTAVSQTPKYLVTQMGNDKSIKCEQNLGHDTMYWYKQDSKKFLKIMFSYNNKELIINETVPNRFSPKSPDKAHLNLHINSLELGDSAVYFCASSQSGAQDGYTFGSGTRLTVVEDLNKVFPPEVAVFEPSEAEISHTQKATLVCLATGFFPDHVELSWWVNGKEVHSGVSTDPQPLKEQPALNDSRYCLSSRLRVSATFWQNPRNHFRCQVQFYGLSENDEWTQDRAKPVTQIVSAEAWGRADCGFTSVSYQQGVLSATILYEILLGKATLYAVLVSALVLMAMVKRKDF
B2: TCR6 (TCR, V domains shown)
Valpha: AQSVTQPDIHITVSEGASLELRCNYSYGATPYLFWYVQSPGQGLQLLLKYFSGDTLVQGIKGFEAEFKRSQSSFNLRKPSVHWSDAAEYFCAVGASREYGNKLVFGAGTILRVKS
Vbeta: NAGVMQNPRHLVRRRGQEARLRCSPMKGHSHVYWYRQLPEEGLKFMVYLQKENIIDESGMPKERFSAEFPKEGPSILRIQQVVRGDSAAYFCASSPGGLLHFGNGTRLTVT
B3: TCR4 (TCR, V domains shown)
Valpha: QKEVEQNSGPLSVPEGAIASLNCTYSDRGSQSFFWYRQYSGKSPELIMFIYSNGDKEDGRFTAQLNKASQYVSLLIRDSQPSDSATYLCAVERGSTLGRLYFGRGTQLTVWP
Vbeta: GAGVSQSPRYKVTKRGQDVTLRCDPISSHATLYWYQQALGQGPEFLTYFNYEAQPDKSGLPSDRFSAERPEGSISTLTIQRTEQRDSAMYRCASSLSSPTGGPINEQFFGPGTRLTVL
B4: TCR3 (TCR, V domains shown)
Valpha: DQQVKQNSPSLSVQEGRISILNCDYTNSMFDYFLWYKKYPAEGPTFLISISSIKDKNEDGRFTVFLNKSAKHLSLHIVPSQPGDSAVYFCAANSGYALNFGKGTSLLVTP
Vbeta: KAGVTQTPRYLIKTRGQQVTLSCSPISGHRSVSWYQQTPGQGLQFLFEYFSETQRNKGNFPGRFSGRQFSNSRSEMNVSTLELGDSALYLCASSLGGVGNEQFFGPGTRLTVL
B5: TCR8 (TCR, V domains shown)
Valpha: SQQGEEDPQALSIQEGENATMNCSYKTSINNLQWYRQNSGRGLVHLILIRSNEREKHSGRLRVTLDTSKKSSSLLITASRAADTASYFCATDAGGGADGLTFGKGTHLIIQP
Vbeta: DSGVTQTPKHLITATGQRVTLRCSPRSGDLSVYWYQQSLDQGLQFLIQYYNGEERAKGNILERFSAQQFPDLHSELNLSSLELGDSALYFCASSESRDSGNTIYFGEGSWLTVV
B6: TCR9 (TCR, V domains shown)
Valpha: B5 Valpha with A93S
Vbeta: B5 Vbeta with S94T, E95P, S96G
B7: TCR5 (TCR, V domains shown)
Valpha: GEDVEQSLFLSVREGDSSVINCTYTDSSSTYLYWYKQEPGAGLQLLTYIFSNMDMKQDQRLTVLLNKKDKHLSLRIADTQTGDSAIYFCAESPGGGADGLTFGKGTHLIIQP
Vbeta: GAVVSQHPSWVICKSGTSVKIECRSLDFQATTMFWYRQFPKQSLMLMATSNEGSKATYEQGVEKDKFLINHASLTLSTLTVTSAHPEDSSFYICSAPRGWAAGVYGYTFGSGTRLTVV
B8: TCR2 (TCR, V domains shown)
Valpha: DQQVKQNSPSLSVQEGRISILNCDYTNSMFDYFLWYKKYPAEGPTFLISISSIKDKNEDGRFTVFLNKSAKHLSLHIVPSQPGDSAVYFCAAKDNAGNMLTFGGGTRLMVKP
Vbeta: KAGVTQTPRYLIKTRGQQVTLSCSPISGHRSVSWYQQTPGQGLQFLFEYFSETQRNKGNFPGRFSGRQFSNSRSEMNVSTLELGDSALYLCASSLGTAEAFFGQGTRLTVV
B9: TCR7 (TCR, V domains shown)
Valpha: B8 Valpha with A92G, D94T, A96T, M99Q, L100F, T101Y, G104T, R107S, M109T, K111I
Vbeta: B8 Vbeta with L95S, T97H, A98P
B10: TCR1 (TCR, V domains shown)
Valpha: LAKTTQPISMDSYEGQEVNITCSHNNIATNDYITWYQQFPSQGPRFIIQGYKTKVTNEVASLFIPADRKSSTLSLPRVSLSDTAVYYCLVGALSSSWYGQNFVFGPGTRLSVLP
Vbeta: DTAVSQTPKYLVTQMGNDKSIKCEQNLGHDTMYWYKQDSKKFLKIMFSYNNKELIINETVPNRFSPKSPDKAHLNLHINSLELGDSAVYFCASSQSGAQDGYTFGSGTRLTVV

Residue numbers refer to the chain shown, from its start.

One experiment has as its target HLA-A*11:01 / KRAS G12V 10-mer peptide … complex (human). As to the kind of experiment: cell-based or functional assay.
For the molecule B1, the EC50 of CD69 expression of TCR-transduced Jurkat cells after co-culture with K562-A*11:01 loaded with graded peptide concentrations (FIG. 4C) came out at 31.3 nM; the fold difference of EC50 (CD69 expression) between the 10-mer and the 9-mer peptide was 10 fold.

The next experiment deals with HLA-A*11:01 / KRAS G12V 9-mer peptide … complex (human). Briefly: cell-based or functional assay.
In the case of B1, the EC50 of CD69 expression of TCR-transduced Jurkat cells after co-culture with K562-A*11:01 loaded with graded peptide concentrations (FIG. 4C) amounted to 2.24 nM.

Another experiment addresses T1, KRAS G12V peptide on HLA-A*11:01. As to the kind of experiment: multimer staining.
For B2, the binding result is recorded as “recognises”.
Same read-out and setting: next, B3: “recognises”; B4: “recognises”.
Same read-out and setting: next, B5: “recognises”.
Same read-out and setting: as for B6, the entry is “recognises”; as for B7, “recognises”.
B8: the binding result was “recognises”.
On to B9, for which the binding result is listed as “recognises”.

The target is the same in a further experiment. As to the kind of experiment: CD69 by flow cytometry on TCR1-transduced Jurkat cells; K562-A*11:01 loaded with peptide at 10^-11 to 10^-6 M; FIG. 4C; full-length, on cells. Here is the method:
(§1) EC₅₀ values of different TCRs were assessed by spot numbers of IFN-γ release and CD69 expression after co-culture of specific TCR-transduced T cells with target cells loaded with graded concentrations of KRAS G12V-9 peptide ([…]) (SEQ ID NO: 91).
On the technique in general: A flow cytometer gives signals particle by particle.
The molecule B10 showed an EC50 of peptide of 2.24 nM.

The next experiment deals with T2, KRAS G12V peptide on HLA-A*11:01. The description is as above. Here is the method:
as §1
B10: the EC50 of peptide is 31.3 nM.

The target is the same in a further experiment. As to the kind of experiment: killing. From the text:
A lentiviral vector containing the TCR gene of the present invention was constructed and used to transduce T cells. The T cells transduced with different TCRs were co-cultured with: (1) HLA-A*11:01-expressing K562 cells loaded with different peptides (G12V-9 peptide: […] (SEQ ID NO: 91), G12V-10 peptide: […] (SEQ ID NO: 92), or WT peptide: […] (SEQ ID NO: 93)+[…] (SEQ ID NO: 94)); and (2) BxPC3 cells expressing HLA-A*11:01, co-expressing HLA-A*11:01 and KRAS G12V, or co-expressing HLA-A*11:01 and KRAS G12D (effector cell:target cell=5:1). After co-incubation for 16 h, the killing ability of T cells against target cells was evaluated by detecting LDH release. Statistical data are shown in FIGS. 2A and 2B (GraphPad Prism 8.0.1 software).
As to B2, the binding result is given as “recognises”.
Same read-out and setting: next, B3: “recognises”; B4: “recognises”; B5: “recognises”.
Still for that read-out and setting: as for B6, the entry is “recognises”; as for B7, “recognises”.
Still for that read-out and setting: as for B8, the entry is “recognises”.
In the case of B9, the binding result is recorded as “recognises”.

The values are drawn from patent publication US20260250388A1 (published 2026).
